Results: patent US20240247080A1, “GLP1/GIP/NPY2 RECEPTOR TRIPLE AGONISTS” (Boehringer Ingelheim International GmbH, priority 2022, published 2024)
Values belong to the binder of their own block, whether it stands above or below them. Starred links: 1 amine or outer side, 2 acyl side, 3 side chain; linkers in the order of their positions; H or OH if unused. Non-standard residues stand in square brackets, D forms with d. Groups on a side chain read outwards from the residue. No end group written: not given here. *: point of attachment. C20 diacid = O=C(O)CCCCCCCCCCCCCCCCCCC(=O)*; C18 diacid = O=C(O)CCCCCCCCCCCCCCCCC(=O)*; γGlu = O=C(O)[C@H](CCC(=O)[*:2])N[*:1]; εLys = N[C@@H](CCCCN[*:1])C(=O)[*:2]; glu = not defined here; AEEA = NCCOCCOCC(=O)O; Aib = CC(C)(N)C(=O)O

Tests used:
Experiment in all cases: cell-based or functional assay
NPY2 receptor = biological target: T1, NPY2 receptor (human (printed as hNPY2R), UniProt P49146 1-381)
T1 sequence (looked up): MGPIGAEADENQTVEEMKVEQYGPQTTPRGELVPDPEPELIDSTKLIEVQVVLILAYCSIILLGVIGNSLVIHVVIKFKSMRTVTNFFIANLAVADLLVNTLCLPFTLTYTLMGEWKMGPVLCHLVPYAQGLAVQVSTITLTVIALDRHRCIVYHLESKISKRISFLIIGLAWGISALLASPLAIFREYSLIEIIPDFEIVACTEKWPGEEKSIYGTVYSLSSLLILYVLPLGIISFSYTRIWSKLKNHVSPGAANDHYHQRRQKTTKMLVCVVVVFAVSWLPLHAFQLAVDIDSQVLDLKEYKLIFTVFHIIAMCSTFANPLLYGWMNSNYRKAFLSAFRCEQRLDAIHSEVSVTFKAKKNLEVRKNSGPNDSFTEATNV

GLP-1 receptor = GLP-1 receptor (human (printed as hGLP1R), UniProt P43220 24-463)
GIP receptor = biological target: T2, GIP receptor (human (printed as hGIPR), UniProt P48546 22-466)
T2 sequence (looked up): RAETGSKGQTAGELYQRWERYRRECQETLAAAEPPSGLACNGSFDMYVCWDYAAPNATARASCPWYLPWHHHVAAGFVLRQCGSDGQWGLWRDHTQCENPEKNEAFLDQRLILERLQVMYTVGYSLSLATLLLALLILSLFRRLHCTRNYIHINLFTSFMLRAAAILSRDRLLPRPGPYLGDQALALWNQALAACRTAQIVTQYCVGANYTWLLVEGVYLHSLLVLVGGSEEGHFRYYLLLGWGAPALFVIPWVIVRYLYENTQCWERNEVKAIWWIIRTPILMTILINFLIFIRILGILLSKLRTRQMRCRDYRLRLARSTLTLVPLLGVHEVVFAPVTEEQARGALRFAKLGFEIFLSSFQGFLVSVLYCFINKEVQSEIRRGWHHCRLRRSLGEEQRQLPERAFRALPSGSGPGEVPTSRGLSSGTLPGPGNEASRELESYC

B3: Compound 189 (peptide)
peptide: Y[Aib]EGTFTSDYSI[Aib]LEKQAQ[Aib]AFVQWLIK([εLys-γGlu-γGlu-γGlu-γGlu-γGlu-C20 diacid])GGPSEYASLRHYYNWLTRQRY-NH2
modifications: also: TFA salt
EC50 hNPY2R 0.5% hP (CreLuc) (NPY2 receptor): 8.03 nM | EC50 hNPY2R 100% hP (CreLuc) (NPY2 receptor): 45.8 nM | EC50 hGLP1R 0.5% hP (CreLuc) (GLP-1 receptor): 0.21 nM | EC50 hGLP1R 100% hP (CreLuc) (GLP-1 receptor): 10.2 nM | EC50 hGIPR 0.5% hP (CreLuc) (GIP receptor): 0.31 nM | EC50 hGIPR 100% hP (CreLuc) (GIP receptor): 5.06 nM

B5: Compound 188 (peptide)
peptide: Y[Aib]EGTFTSDYSI[Aib]LEKQAQ[Aib]AFVQWLIK([AEEA-AEEA-Glu-Glu-Glu-C18 diacid])GGPEEGASLRHYYNWLTRQRY-NH2
modifications: also: TFA salt
EC50 hNPY2R 0.5% hP (CreLuc) (NPY2 receptor): 16.9 nM | EC50 hNPY2R 100% hP (CreLuc) (NPY2 receptor): 105 nM | EC50 hGLP1R 0.5% hP (CreLuc) (GLP-1 receptor): 0.15 nM | EC50 hGLP1R 100% hP (CreLuc) (GLP-1 receptor): 5.93 nM | EC50 hGIPR 0.5% hP (CreLuc) (GIP receptor): 0.12 nM | EC50 hGIPR 100% hP (CreLuc) (GIP receptor): 1.16 nM

B6: Compound 185 (peptide)
peptide: Y[Aib]EGTFTSDYSI[Aib]LEKQAQ[Aib]EFVQWLIK([γGlu-γGlu-γGlu-γGlu-γGlu-γGlu-C20 diacid])GGPSEGASLRHYYNWLTRQRY-NH2
modifications: also: TFA salt
EC50 hNPY2R 0.5% hP (CreLuc) (NPY2 receptor): 13.3 nM | EC50 hNPY2R 100% hP (CreLuc) (NPY2 receptor): 66.8 nM | EC50 hGLP1R 0.5% hP (CreLuc) (GLP-1 receptor): 0.4 nM | EC50 hGLP1R 100% hP (CreLuc) (GLP-1 receptor): 11 nM | EC50 hGIPR 0.5% hP (CreLuc) (GIP receptor): 0.33 nM | EC50 hGIPR 100% hP (CreLuc) (GIP receptor): 5.59 nM

B9: Compound 183 (peptide)
peptide: Y[Aib]EGTFTSDYSI[Aib]LEKQAQ[Aib]AFVEWLIKGGPSSYASLRHYYNWLTRQRY-NH2
modifications: not fully specified (residue 28); also: TFA salt
EC50 hNPY2R 0.5% hP (CreLuc) (NPY2 receptor): 9.34 nM | EC50 hNPY2R 100% hP (CreLuc) (NPY2 receptor): 56.6 nM | EC50 hGLP1R 0.5% hP (CreLuc) (GLP-1 receptor): 0.22 nM | EC50 hGLP1R 100% hP (CreLuc) (GLP-1 receptor): 12.8 nM | EC50 hGIPR 0.5% hP (CreLuc) (GIP receptor): 0.28 nM | EC50 hGIPR 100% hP (CreLuc) (GIP receptor): 6.83 nM

B10: Compound 192 (peptide)
peptide: Y[Aib]EGTFTSDYSI[Aib]LEK(Ac)QAQ[Aib]AFVEWLIK([εLys-glu-γGlu-γGlu-γGlu-γGlu-γGlu-C20 diacid])GGPSSGASLRHYYNWLTRQRY-NH2
modifications: reading uncertain; also: TFA salt
EC50 hNPY2R 0.5% hP (CreLuc) (NPY2 receptor): 20.5 nM | EC50 hNPY2R 100% hP (CreLuc) (NPY2 receptor): 128 nM | EC50 hGLP1R 0.5% hP (CreLuc) (GLP-1 receptor): 0.13 nM | EC50 hGLP1R 100% hP (CreLuc) (GLP-1 receptor): 2.01 nM | EC50 hGIPR 0.5% hP (CreLuc) (GIP receptor): 0.28 nM | EC50 hGIPR 100% hP (CreLuc) (GIP receptor): 1.95 nM

Other lines, results leading:

EC50 hNPY2R 0.5% hP (CreLuc) (NPY2 receptor): 13.1 nM | EC50 hNPY2R 100% hP (CreLuc) (NPY2 receptor): 69.9 nM | EC50 hGLP1R 0.5% hP (CreLuc) (GLP-1 receptor): 0.47 nM | EC50 hGLP1R 100% hP (CreLuc) (GLP-1 receptor): 15.8 nM | EC50 hGIPR 0.5% hP (CreLuc) (GIP receptor): 0.26 nM | EC50 hGIPR 100% hP (CreLuc) (GIP receptor): 5.01 nM
B1: Compound 198 (peptide)
peptide: Y[Aib]EGTFTSDYSI[Aib]LEKQAQ[Aib]EFVEWLIKGGPSSGASLRHYYNWLTRQRY-NH2
modifications: not fully specified (residue 28); also: TFA salt

EC50 hNPY2R 0.5% hP (CreLuc) (NPY2 receptor): 13.8 nM | EC50 hNPY2R 100% hP (CreLuc) (NPY2 receptor): 93.7 nM | EC50 hGLP1R 0.5% hP (CreLuc) (GLP-1 receptor): 0.29 nM | EC50 hGLP1R 100% hP (CreLuc) (GLP-1 receptor): 14.2 nM | EC50 hGIPR 0.5% hP (CreLuc) (GIP receptor): 0.2 nM | EC50 hGIPR 100% hP (CreLuc) (GIP receptor): 1.83 nM
B2: Compound 194 (peptide)
peptide: Y[Aib]EGTFTSDYSI[Aib]LEKQAQ[Aib]EFVQWLIK([γGlu-γGlu-γGlu-γGlu-C20 diacid])GGPSEGASLRHYYNWLTRQRY-NH2
modifications: also: TFA salt

EC50 hNPY2R 0.5% hP (CreLuc) (NPY2 receptor): 30 nM | EC50 hNPY2R 100% hP (CreLuc) (NPY2 receptor): 106 nM | EC50 hGLP1R 0.5% hP (CreLuc) (GLP-1 receptor): 1.26 nM | EC50 hGLP1R 100% hP (CreLuc) (GLP-1 receptor): 13.8 nM | EC50 hGIPR 0.5% hP (CreLuc) (GIP receptor): 0.94 nM | EC50 hGIPR 100% hP (CreLuc) (GIP receptor): 5.5 nM
B4: Compound 199 (peptide)
peptide: Y[Aib]EGTFTSDYSI[Aib]LE[Aib]QAQ[Aib]AFVEWLIKGGPSSGASLRHYYNWLTRQRY-NH2
modifications: not fully specified (residue 28); also: TFA salt

EC50 hNPY2R 0.5% hP (CreLuc) (NPY2 receptor): 12.1 nM | EC50 hNPY2R 100% hP (CreLuc) (NPY2 receptor): 64.3 nM | EC50 hGLP1R 0.5% hP (CreLuc) (GLP-1 receptor): 0.48 nM | EC50 hGLP1R 100% hP (CreLuc) (GLP-1 receptor): 25.8 nM | EC50 hGIPR 0.5% hP (CreLuc) (GIP receptor): 0.37 nM | EC50 hGIPR 100% hP (CreLuc) (GIP receptor): 3.56 nM
B7: Compound 200 (peptide)
peptide: Y[Aib]EGTFTSDYSI[Aib]LEKQAE[Aib]AFVQWLIK([εLys-γGlu-γGlu-γGlu-γGlu-γGlu-C20 diacid])GGPSEGASLRHYYNWLTRQRY-NH2
modifications: also: TFA salt

EC50 hNPY2R 0.5% hP (CreLuc) (NPY2 receptor): 13.6 nM | EC50 hNPY2R 100% hP (CreLuc) (NPY2 receptor): 73.3 nM | EC50 hGLP1R 0.5% hP (CreLuc) (GLP-1 receptor): 0.36 nM | EC50 hGLP1R 100% hP (CreLuc) (GLP-1 receptor): 20.8 nM | EC50 hGIPR 0.5% hP (CreLuc) (GIP receptor): 0.5 nM | EC50 hGIPR 100% hP (CreLuc) (GIP receptor): 3.4 nM
B8: Compound 193 (peptide)
peptide: Y[Aib]EGTFTSDYSI[Aib]LEKQAQ[Aib]AFVQWLIK([AEEA-AEEA-γGlu-γGlu-γGlu-γGlu-C20 diacid])GGPEEGASLRHYYNWLTRQRY-NH2
modifications: also: TFA salt
